PMC6477676, “Staufen2-mediated RNA recognition and localization requires combinatorial action of multiple domains”
Numbering of substitutions follows the chain as printed.

T1: mStau2 dsRBD1-4 F40A H169A (Mus musculus, UniProt Q8CJ67 8-375, F40A;H169A)
T1 sequence: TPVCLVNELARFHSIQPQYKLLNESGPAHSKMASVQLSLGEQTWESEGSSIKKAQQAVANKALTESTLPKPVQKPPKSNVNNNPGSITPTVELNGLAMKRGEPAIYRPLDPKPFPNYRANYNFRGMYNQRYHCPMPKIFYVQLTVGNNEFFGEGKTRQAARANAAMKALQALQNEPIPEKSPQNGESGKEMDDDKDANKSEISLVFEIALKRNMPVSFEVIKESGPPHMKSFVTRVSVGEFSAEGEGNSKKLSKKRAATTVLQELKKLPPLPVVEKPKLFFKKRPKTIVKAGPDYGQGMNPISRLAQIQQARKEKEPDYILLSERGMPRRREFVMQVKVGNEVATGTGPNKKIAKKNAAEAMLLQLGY

T2: mStau2 dsRBD1-2 F40A H169A (Mus musculus, UniProt Q8CJ67 8-181, F40A;H169A)
T2 sequence: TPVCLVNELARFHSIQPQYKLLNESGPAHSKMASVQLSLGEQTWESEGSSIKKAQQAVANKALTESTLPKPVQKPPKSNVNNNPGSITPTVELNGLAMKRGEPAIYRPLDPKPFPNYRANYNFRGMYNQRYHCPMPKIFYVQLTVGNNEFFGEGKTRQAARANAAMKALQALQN

T3: mStau2 dsRBD1-2 F40A F157A (Mus musculus, UniProt Q8CJ67 8-181, F40A;F157A)
T3 sequence: T2 sequence with F150A, A162H

T4: mStau2 dsRBD1-4 (Mus musculus, UniProt Q8CJ67 8-375)
T4 sequence: T1 sequence with A33F, A162H

B1: SRS* (SRS3) (structured_RNA)
RNA: GGUAUGUGUGAAUGUGCAUGAAUAUAUAUAUAUAUGCAUAUAUAUAUUUGUAUAUGUUCACACAUG

What was measured:
[1] = target: T1, mStau2 dsRBD1-4 F40A H169A; assay: SPR; two-site, transient; KDs resemble dsRBD3-4; SPR: HBS-EP (10 mM HEPES pH 7.4, 150 mM NaCl, 3 mM EDTA, 0.005% P20); EMSA: 5 nM RNA, protein buffer (40 mM Bis-Tris pH 7, 150 mM NaCl, 2 mM DTT presumed), 4% glycerol, 30 ug/mL yeast tRNA, RT; NMR: 150 mM NaCl, 20 mM Na phosphate pH 7.0, 5 mM DTT, 298 K; conditions: protein: recombinant, label: 5' 32P (EMSA), biotin (SPR)
[2] = target: T2, mStau2 dsRBD1-2 F40A H169A; assay: SPR; no fit; SPR: HBS-EP (10 mM HEPES pH 7.4, 150 mM NaCl, 3 mM EDTA, 0.005% P20); EMSA: 5 nM RNA, protein buffer (40 mM Bis-Tris pH 7, 150 mM NaCl, 2 mM DTT presumed), 4% glycerol, 30 ug/mL yeast tRNA, RT; NMR: 150 mM NaCl, 20 mM Na phosphate pH 7.0, 5 mM DTT, 298 K; conditions: protein: recombinant, label: 5' 32P (EMSA), biotin (SPR)
[3] = target: T3, mStau2 dsRBD1-2 F40A F157A; assay: as above; conditions: protein: recombinant, label: 5' 32P (EMSA), biotin (SPR)
mStau2 dsRBD1-4 = target: T4, mStau2 dsRBD1-4; assay: SPR; Hill n 1.6; text says 357 nM; SPR: HBS-EP (10 mM HEPES pH 7.4, 150 mM NaCl, 3 mM EDTA, 0.005% P20); EMSA: 5 nM RNA, protein buffer (40 mM Bis-Tris pH 7, 150 mM NaCl, 2 mM DTT presumed), 4% glycerol, 30 ug/mL yeast tRNA, RT; NMR: 150 mM NaCl, 20 mM Na phosphate pH 7.0, 5 mM DTT, 298 K; conditions: protein: recombinant; tags: HisSUMO removed; label: 5' 32P (EMSA); biotin (SPR); hairpin, 18 bp stem
[4] = imperfect hairpin, 26 bp with two bulges

| Binder | binding result [1, 4] | binding result [2, 4] | binding result [3, 4] | Kd (mStau2 dsRBD1-4) [nM] | binding result ([1]; hairpin, 18 bp stem) | binding result ([2]; hairpin, 18 bp stem) | binding result ([3]; hairpin, 18 bp stem) |
| --- | --- | --- | --- | --- | --- | --- | --- |
| B1 | binds | no binding | no binding | – | – | – | – |
| GGUAUAUACAUGCACAUGCAAUUUGUGUAUGUGUAUGUAUAUA (structured_RNA) [SRS2+5] | – | – | – | 330 ± 148 | binds | no binding | no binding |
